B1: Ribonuclease, P00648 (parent)
chain: MMKMEGIALKKRLSWISVCLLVLVSAAGMLFSTAAKTETSSHKAHTEAQVINTFDGVADYLQTYHKLPDNYITKSEAQALGWVASKGNLADVAPGKSIGGDIFSNREGKLPGKSGRTWREADINYTSGFRNSDRILYSSDWLIYKTTDHYQTFTKIR

Variants of: B1
Conditions: Bacillus amyloliquefaciens, pH 6.3, 25 °C, Fluorescence, MES 450 mM, reversible: yes, structure 1BNI, whole UniProt chain shown

Row | Variant | ddG of mutation (higher = less stable) (GdnHCl) [kcal/mol] | denaturant m value (GdnHCl) [kcal/mol/M] | denaturant midpoint (higher = more stable) (GdnHCl) [M] | unfolding free energy (GdnHCl) [kcal/mol] | ddG of mutation (higher = less stable) (Urea) [kcal/mol] | denaturant m value (Urea) [kcal/mol/M] | denaturant midpoint (higher = more stable) (Urea) [M] | unfolding free energy (Urea) [kcal/mol]
1 | MMKMEGIALKKRLSWISVCLLVLVSAAGMLFSTAAKTETSSHKAHTEAQVINTFDGVADYLQTYHKLPDNYITKSEAQALGWVASKGNLADVAPGKSIGGDIFSNREGKLPGKSGRTWREADINYTSGFRNCDRILYSSDWLIYKTTDCYQTFTKIR | -4.1 | 4.3 | 3 | 12.9 |  |  |  | 
2 | MMKMEGIALKKRLSWISVCLLVLVSAAGMLFSTAAKTETSSHKAHTEAQVINTFDGVADYLQTYHKLPDNYITKSEAQALGWVASKGNLCDVAPGKSIGGDIFSNREGKLPGKSGRTWREADINYTCGFRNSDRILYSSDWLIYKTTDHYQTFTKIR |  |  |  |  | -1.21 | 1.73 | 5.77 | 10
